Test results: patent US20200283478A1 (Genentech, published 2020)
Where two headings read alike, the source gives them in different places. Bridge positions count the residues as written; N and C are the ends. Square brackets hold non-standard residues; d marks the D form. * marks the point of attachment. 5FAM = O=C1OC2(c3ccc(O)cc3Oc3cc(O)ccc32)c2ccc(C(=O)*)cc21; Ach = 2-aminocyclohexane-1-carboxylic acid; Dap = NC[C@H](N)C(=O)O

Assays:
[1] = molecular target: T1, PCSK9 (proprotein convertase subtilisin/kexin type 9), His-tagged, full-length (human, UniProt Q8NBP7 31-692); assay: SPR, Method 3 (SensiQ Pioneer FE, target amine-coupled, gradient injection)
T1 construct: Captured by the His tag (SPR Methods 1 and 2), amine-coupled (Method 3), or His-tagged in TR-FRET; also called His-PCSK9
T1 sequence (Q8NBP7 31-692 limits assumed): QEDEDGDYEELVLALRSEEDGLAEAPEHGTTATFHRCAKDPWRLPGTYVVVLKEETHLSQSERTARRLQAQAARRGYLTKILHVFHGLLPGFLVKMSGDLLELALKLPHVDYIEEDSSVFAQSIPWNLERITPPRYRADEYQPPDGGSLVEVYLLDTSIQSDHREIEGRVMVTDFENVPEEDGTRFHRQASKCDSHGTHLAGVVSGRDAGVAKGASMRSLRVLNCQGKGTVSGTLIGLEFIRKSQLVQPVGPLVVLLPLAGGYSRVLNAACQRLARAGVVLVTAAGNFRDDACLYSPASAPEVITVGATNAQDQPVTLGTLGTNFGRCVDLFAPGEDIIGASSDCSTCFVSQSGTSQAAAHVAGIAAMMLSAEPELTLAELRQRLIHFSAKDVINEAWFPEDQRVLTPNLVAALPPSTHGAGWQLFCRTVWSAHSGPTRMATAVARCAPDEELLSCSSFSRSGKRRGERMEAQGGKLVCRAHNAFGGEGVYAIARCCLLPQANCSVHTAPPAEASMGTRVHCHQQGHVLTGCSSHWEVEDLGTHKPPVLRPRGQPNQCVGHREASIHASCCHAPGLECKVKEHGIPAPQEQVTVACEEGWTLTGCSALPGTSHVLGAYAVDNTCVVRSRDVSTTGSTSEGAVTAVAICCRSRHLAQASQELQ

PCSK9Δhelix [2] = molecular target: T2, PCSK9Δhelix (human, UniProt Q8NBP7 31-152; Q8NBP7 168-692); assay: as above
T2 construct: Made by TEV cleavage of human PCSK9 M1-Q692 with an engineered TEV site; The new N-terminus of the catalytic domain is S-A168; also called His-PCSK9Δhelix; PCSK9 lacking the P' helix
T2 sequence (Q8NBP7 31-152, stated change not applied, chain 1 of 2): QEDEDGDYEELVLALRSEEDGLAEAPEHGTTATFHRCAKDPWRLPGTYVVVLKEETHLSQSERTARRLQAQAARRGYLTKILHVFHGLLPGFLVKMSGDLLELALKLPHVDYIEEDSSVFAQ
T2 sequence (Q8NBP7 other isoform, or with tags, fused parts or gaps mutant, chain 2 of 2): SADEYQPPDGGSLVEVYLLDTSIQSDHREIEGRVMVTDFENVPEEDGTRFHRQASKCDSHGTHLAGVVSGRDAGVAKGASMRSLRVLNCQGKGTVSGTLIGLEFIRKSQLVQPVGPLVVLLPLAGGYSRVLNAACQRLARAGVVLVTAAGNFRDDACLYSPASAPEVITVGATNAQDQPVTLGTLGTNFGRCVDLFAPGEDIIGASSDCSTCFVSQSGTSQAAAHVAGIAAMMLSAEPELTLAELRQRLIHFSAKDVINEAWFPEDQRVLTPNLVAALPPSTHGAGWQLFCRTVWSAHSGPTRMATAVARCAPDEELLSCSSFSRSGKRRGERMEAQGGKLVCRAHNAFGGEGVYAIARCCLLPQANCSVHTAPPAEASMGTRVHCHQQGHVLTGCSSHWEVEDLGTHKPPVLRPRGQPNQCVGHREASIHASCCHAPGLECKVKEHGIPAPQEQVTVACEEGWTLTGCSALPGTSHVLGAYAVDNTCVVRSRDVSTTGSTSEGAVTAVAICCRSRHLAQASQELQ

PCSK9Δhelix [3] = molecular target: T3, PCSK9Δhelix (human, Chemically biotinylated in the phage ELISAs; the site is not given.); assay: phage spot ELISA
T3 construct: construct M1-Q692 with engineered TEV site, cleaved by TEV; also called His-PCSK9Δhelix; open groove PCSK9Δhelix
T3 sequence (prodomain, as listed by the source mutant limits assumed, chain 1 of 2): as the sequence (Q8NBP7 31-152, stated change not applied, chain 1 of 2) above
T3 sequence (chain, as listed by the source mutant limits assumed, chain 2 of 2): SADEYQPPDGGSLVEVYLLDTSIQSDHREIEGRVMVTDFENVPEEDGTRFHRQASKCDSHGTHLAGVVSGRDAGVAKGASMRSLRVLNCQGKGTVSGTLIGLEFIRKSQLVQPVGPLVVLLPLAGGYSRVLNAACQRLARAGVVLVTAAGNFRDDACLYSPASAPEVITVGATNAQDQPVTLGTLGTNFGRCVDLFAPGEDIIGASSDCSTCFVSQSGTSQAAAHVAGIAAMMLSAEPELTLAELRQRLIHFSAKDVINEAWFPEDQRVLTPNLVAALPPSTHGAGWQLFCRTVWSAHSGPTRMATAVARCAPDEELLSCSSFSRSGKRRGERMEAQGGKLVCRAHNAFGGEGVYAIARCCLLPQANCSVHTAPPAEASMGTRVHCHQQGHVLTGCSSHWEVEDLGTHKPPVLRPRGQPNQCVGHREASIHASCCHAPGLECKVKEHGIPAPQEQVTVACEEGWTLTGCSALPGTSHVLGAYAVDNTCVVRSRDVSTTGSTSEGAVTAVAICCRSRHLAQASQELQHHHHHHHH

[4] = molecular target: T4, proprotein convertase subtilisin/kexin type 9 (PCSK9) (human, UniProt Q8NBP7 31-692); assay: phage spot ELISA
T4 construct: His-tagged full-length PCSK9 in TR-FRET and SPR, biotinylated in phage ELISA; secreted protein is autoprocessed (prodomain plus catalytic/CRD chain starting at S153); also called rec.PCSK9; His-PCSK9
T4 sequence (Q8NBP7 other isoform, or with tags, fused parts or gaps limits assumed): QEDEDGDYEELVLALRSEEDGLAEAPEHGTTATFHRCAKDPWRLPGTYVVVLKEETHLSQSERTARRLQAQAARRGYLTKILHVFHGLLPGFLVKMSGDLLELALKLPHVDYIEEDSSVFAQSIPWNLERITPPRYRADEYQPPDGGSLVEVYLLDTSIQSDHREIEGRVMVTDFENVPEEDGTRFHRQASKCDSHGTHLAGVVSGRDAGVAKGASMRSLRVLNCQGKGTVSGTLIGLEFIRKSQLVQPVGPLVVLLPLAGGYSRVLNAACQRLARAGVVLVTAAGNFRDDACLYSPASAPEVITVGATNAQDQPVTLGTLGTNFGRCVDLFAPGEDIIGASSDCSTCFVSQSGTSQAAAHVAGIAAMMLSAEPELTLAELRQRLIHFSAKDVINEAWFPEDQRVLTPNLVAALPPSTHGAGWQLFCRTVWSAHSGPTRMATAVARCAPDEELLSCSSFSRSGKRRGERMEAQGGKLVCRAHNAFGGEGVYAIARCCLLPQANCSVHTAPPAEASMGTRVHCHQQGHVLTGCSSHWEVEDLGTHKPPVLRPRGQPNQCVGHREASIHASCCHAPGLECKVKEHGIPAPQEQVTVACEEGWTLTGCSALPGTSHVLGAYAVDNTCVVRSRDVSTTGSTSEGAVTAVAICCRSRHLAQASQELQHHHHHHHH

[5] = molecular target: T1, PCSK9 (proprotein convertase …); assay: TR-FRET competition; competitor EGF(A)-Fc binding to His-PCSK9
PCSK9Δhelix [6] = molecular target: T2, PCSK9Δhelix; assay: TR-FRET competition; competitor Ab20 binding to His-PCSK9Δhelix
PCSK9Δhelix [7] = molecular target: T2, PCSK9Δhelix; assay: as above; remark: listed apart in the source
[8] = molecular target: T1, PCSK9 (proprotein convertase …); assay: TR-FRET competition; competitor EGF(A)-Fc binding to His-PCSK9; remark: listed apart in the source
[9] = molecular target: T1, PCSK9 (proprotein convertase …); assay: as above; remark: listed apart in the source

Binder: Ac-FCLWNLKRIGAQCWF-NH2 (disulfide 2-13 (inferred), Two Cys, disulfide-cyclized) [Compound 96]
- Kd [1]: 46400 nM
- Kd (PCSK9Δhelix [2]): 2500 nM

Binder: SGCSDLWNLARIYPMC [SEQ ID NO 391]
- ELISA (PCSK9Δhelix [3]): 2.21
- s/n ratio (PCSK9Δhelix [3]): 15.1
- ELISA [4]: 0.514
- s/n ratio [4]: 3.59

Binder: Ac-CFIPWNLQRIGLLC-NH2 (disulfide 1-14 (inferred), Two Cys, disulfide-cyclized) [Compound 31]
- Kd [1]: 5830 nM
- Kd (PCSK9Δhelix [2]): 3010 nM

Binder: 5FAM-SGSGCFIPWNLQRIGLLC-NH2 (disulfide 5-18 (inferred), Two Cys, disulfide-cyclized) [Compound 33]
- Kd [1]: 6010 nM
- Kd (PCSK9Δhelix [2]): 10000 nM

Binder: Ac-TVFTSWEEYLDWVGSGKLWNL-NH2 [Compound 6]
- IC50 [5]: 740 nM
- IC50 (PCSK9Δhelix [6]): 10000 nM

Binder: SGGACPWNLERIGLSC [SEQ ID NO 384]
- ELISA (PCSK9Δhelix [3]): 1.94
- s/n ratio (PCSK9Δhelix [3]): 12.3
- ELISA [4]: 1.42
- s/n ratio [4]: 9.77

Binder: Ac-TVFTSWEEYLDWVGSGKLWNLGRV-NH2 [Compound 1]
- IC50 [5]: 388 nM
- IC50 (PCSK9Δhelix [6]): 21 nM

Binder: Ac-MPWNLVRIGLLR-NH2 [Compound 51]
- IC50 (PCSK9Δhelix [7]): 4690 nM
- Kd [1]: 26200 nM
- Kd (PCSK9Δhelix [2]): 2700 nM
- IC50 [8]: > 50000 nM

Binder: Ac-CRLPWNLQRIGLPC-NH2 (disulfide 1-14 (inferred), Two Cys, disulfide-cyclized) [Compound 32]
- Kd [1]: 1300 nM
- Kd (PCSK9Δhelix [2]): 210 nM

Binder: Ac-CRLPWNLARIGLPC-NH2 (disulfide 1-14 (inferred), Two Cys, disulfide-cyclized) [Compound 73]
- Kd [1]: 11000 nM
- Kd (PCSK9Δhelix [2]): 167 nM

B1: Compound 97 (peptide)
peptide: Ac-GSGCWNL[Dap]RIGSQGC-NH2
modifications: disulfide 4-15
SMILES: CC[C@H](C)[C@@H]1NC(=O)[C@H](CCCNC(=N)N)NC(=O)[C@H](CN)NC(=O)[C@H](CC(C)C)NC(=O)[C@H](CC(N)=O)NC(=O)[C@H](Cc2c[nH]c3ccccc23)NC(=O)[C@@H](NC(=O)CNC(=O)[C@H](CO)NC(=O)CNC(C)=O)CSSC[C@@H](C(N)=O)NC(=O)CNC(=O)[C@H](CCC(N)=O)NC(=O)[C@H](CO)NC(=O)CNC1=O
notes: Two Cys, disulfide-cyclized; also called Ac-GSG-CWNL(Dpr)RIGSQGC-NH2
- Kd [1]: 522000 nM
- Kd (PCSK9Δhelix [2]): 89200 nM

Binder: Ac-LMPWNLVRIGLLR-NH2 [Compound 50]
- IC50 (PCSK9Δhelix [7]): 2660 nM
- Kd [1]: 16100 nM
- Kd (PCSK9Δhelix [2]): 1600 nM
- IC50 [8]: > 50000 nM

Binder: Ac-TVFTSWEEYLDWVGGSGKLWNLGRV-NH2 [Compound 8]
- IC50 [5]: 1030 nM
- IC50 (PCSK9Δhelix [6]): 49 nM

Binder: Ac-TVFTSWEEYLDWVGSGGKLWNLGRV-NH2 [Compound 9]
- IC50 [5]: 390 nM
- IC50 (PCSK9Δhelix [6]): 65 nM

Binder: Ac-CRL[Ach]WNLQRIGLPC-NH2 (disulfide 1-14 (inferred), Two Cys, disulfide-cyclized) [Compound 82]
- Kd [1]: 118000 nM
- Kd (PCSK9Δhelix [2]): 6400 nM

Binder: SGGSMPWNLERIFALH [SEQ ID NO 390]
- ELISA (PCSK9Δhelix [3]): 3.19
- s/n ratio (PCSK9Δhelix [3]): 21.3
- ELISA [4]: 2.74
- s/n ratio [4]: 15.8

Binder: Ac-TVFTSWEEYLDWVGSGCWNLGRIGSQGC-NH2 (disulfide 17-28 (inferred), Two Cys, disulfide-cyclized) [Compound 11]
- IC50 [9]: 340 nM

Binder: Ac-TVFTSWEEYLDWVGSGCWNLKRVGSQGC-NH2 (disulfide 17-28 (inferred), Two Cys, disulfide-cyclized) [Compound 12]
- IC50 [9]: 190 nM
